Source: publication PMC6667474 (Scientific Reports, 2019)

Biological target: T1, Myc-IQGAP3 (human, UniProt Q86VI3 2-1631)
T1 construct: human IQGAP3 from a commercial cDNA (Dharmacon); full length IQGAP3 (corresponding to amino acids 2-1631) in pcDNA3; also called overexpressed IQGAP3; IQ3; source: HEK293, transfected, in lysate
Assay: co-IP; HEK293 cells transfected with Myc-IQGAP3 alone or with Myc-Cdc42 (wt, Q61L or T17N); anti-IQGAP3 rabbit polyclonal antibody and Protein A-Sepharose 4 h at 4 C; lysis buffer 150 mM NaCl, 1% Triton X-100, 200 mM Tris-HCl pH 7.4; Western blot
Conditions: partners not purified

T1 sequence (Q86VI3 2-1631): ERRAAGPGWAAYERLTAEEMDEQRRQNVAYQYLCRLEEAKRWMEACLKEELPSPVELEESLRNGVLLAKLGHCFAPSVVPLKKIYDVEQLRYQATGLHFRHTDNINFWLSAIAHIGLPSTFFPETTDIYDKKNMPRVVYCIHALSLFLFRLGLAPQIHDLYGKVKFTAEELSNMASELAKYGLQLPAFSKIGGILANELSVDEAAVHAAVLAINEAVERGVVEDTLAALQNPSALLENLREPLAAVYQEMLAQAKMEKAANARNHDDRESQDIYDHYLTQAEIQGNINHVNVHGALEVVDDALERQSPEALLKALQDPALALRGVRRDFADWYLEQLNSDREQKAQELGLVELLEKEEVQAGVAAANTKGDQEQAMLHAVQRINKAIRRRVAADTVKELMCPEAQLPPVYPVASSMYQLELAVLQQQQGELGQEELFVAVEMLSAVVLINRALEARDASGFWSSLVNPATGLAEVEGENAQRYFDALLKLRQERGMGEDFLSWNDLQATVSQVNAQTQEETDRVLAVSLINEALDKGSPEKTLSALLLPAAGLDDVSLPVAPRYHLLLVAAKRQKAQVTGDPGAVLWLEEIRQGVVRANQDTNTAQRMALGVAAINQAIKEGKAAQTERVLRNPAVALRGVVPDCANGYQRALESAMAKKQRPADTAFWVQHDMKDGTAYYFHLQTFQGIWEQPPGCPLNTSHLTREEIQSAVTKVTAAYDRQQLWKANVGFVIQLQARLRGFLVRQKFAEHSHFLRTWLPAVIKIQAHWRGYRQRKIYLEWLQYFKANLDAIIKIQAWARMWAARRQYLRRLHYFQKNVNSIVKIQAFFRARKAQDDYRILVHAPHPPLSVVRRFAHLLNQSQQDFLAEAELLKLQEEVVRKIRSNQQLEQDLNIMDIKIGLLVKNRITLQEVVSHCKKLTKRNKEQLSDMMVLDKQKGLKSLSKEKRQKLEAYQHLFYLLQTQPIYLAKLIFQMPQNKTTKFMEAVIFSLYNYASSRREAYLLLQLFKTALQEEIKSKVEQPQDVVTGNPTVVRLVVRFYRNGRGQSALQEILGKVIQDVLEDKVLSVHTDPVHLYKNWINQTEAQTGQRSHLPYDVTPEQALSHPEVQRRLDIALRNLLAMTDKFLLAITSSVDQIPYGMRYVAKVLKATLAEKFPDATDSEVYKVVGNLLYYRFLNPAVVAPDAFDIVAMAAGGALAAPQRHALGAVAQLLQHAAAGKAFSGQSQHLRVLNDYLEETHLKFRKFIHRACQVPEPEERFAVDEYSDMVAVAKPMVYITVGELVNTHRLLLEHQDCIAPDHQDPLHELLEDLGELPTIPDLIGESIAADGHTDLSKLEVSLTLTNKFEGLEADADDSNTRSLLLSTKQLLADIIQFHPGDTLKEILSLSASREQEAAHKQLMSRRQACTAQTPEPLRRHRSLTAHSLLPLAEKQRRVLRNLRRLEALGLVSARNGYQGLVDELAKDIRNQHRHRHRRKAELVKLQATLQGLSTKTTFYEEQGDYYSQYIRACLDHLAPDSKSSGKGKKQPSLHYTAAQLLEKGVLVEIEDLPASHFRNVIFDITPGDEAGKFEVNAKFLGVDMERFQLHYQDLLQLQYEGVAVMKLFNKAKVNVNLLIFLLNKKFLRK

B1: Myc-Cdc42 constitutively active (Q61L) (natural protein)
chain: not shown
notes: Cdc42 Q61L cut from pGEX-2T-Cdc42-Q61L and inserted into pcDNA3; also called Myc-Cdc42-Q61L; Cdc42 Q61L; source: HEK293, transfected, in lysate
fold amount co-immunoprecipitated against wild type Cdc42: 1.7 fold
